Measurements as given in IntAct's records for PubMed 33758649.

B1: Protein PALS1 (Homo sapiens), Q8N3R9 (parent)
chain: MTTSHMNGHVTEESDSEVKNVDLASPEEHQKHREMAVDCPGDLGTRMMPIRRSAQLERIRQQQEDMRRRREEEGKKQELDLNSSMRLKKLAQIPPKTGIDNPMFDTEEGIVLESPHYAVKILEIEDLFSSLKHIQHTLVDSQSQEDISLLLQLVQNKDFQNAFKIHNAITVHMNKASPPFPLISNAQDLAQEVQTVLKPVHHKEGQELTALLNTPHIQALLLAHDKVAEQEMQLEPITDERVYESIGQYGGETVKIVRIEKARDIPLGATVRNEMDSVIISRIVKGGAAEKSGLLHEGDEVLEINGIEIRGKDVNEVFDLLSDMHGTLTFVLIPSQQIKPPPAKETVIHVKAHFDYDPSDDPYVPCRELGLSFQKGDILHVISQEDPNWWQAYREGDEDNQPLAGLVPGKSFQQQREAMKQTIEEDKEPEKSGKLWCAKKNKKKRKKVLYNANKNDDYDNEEILTYEEMSLYHQPANRKRPIILIGPQNCGQNELRQRLMNKEKDRFASAVPHTTRSRRDQEVAGRDYHFVSRQAFEADIAAGKFIEHGEFEKNLYGTSIDSVRQVINSGKICLLSLRTQSLKTLRNSDLKPYIIFIAPPSQERLRALLAKEGKNPKPEELREIIEKTREMEQNNGHYFDTAIVNSDLDKAYQELLRLINKLDTEPQWVPSTWLR

Variants of: B1
Conditions: with vemp_sars2 E
F318W was tested, and the “effect of a mutation on the interaction” value was “increasing interaction strength”.
